Assay [1] deals with cMyc-tagged C-terminal TLR2 (cTLR2) recombinant protein, C-terminal TIR domain of TLR2 (640-784 amino acids) (UniProt Q9QUN7). The experiment in a line: thermal shift assay of cTLR2 with wtTIDM peptide.
Assay [2] shares this target. Briefly: SPR, cTLR2 immobilised; reference mTIDM.
Assay [3] shares this target. Briefly: SPR, cTLR2 immobilised, peptide as analyte; equilibrium response versus peptide concentration; wtTIDM peptide.
For assay [4] the target is unchanged. The experiment in a line: SPR, cTLR2 immobilised, peptide as analyte; equilibrium response versus peptide concentration; mTIDM (mutated) peptide.
The target is the same in assay [5]. Briefly: thermal shift assay of cTLR2 with mTIDM peptide.

cMyc-tagged C-terminal TLR2 (cTLR2) recombinant protein, C-terminal TIR domain of TLR2 (640-784 amino acids), sequence (Q9QUN7 640-784 limits assumed, form in doubt): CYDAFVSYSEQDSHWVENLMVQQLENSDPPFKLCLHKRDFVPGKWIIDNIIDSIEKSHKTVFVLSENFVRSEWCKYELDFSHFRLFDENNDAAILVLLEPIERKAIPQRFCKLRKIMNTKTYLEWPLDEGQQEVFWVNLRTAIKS

Turning to DRQIKIWFQNRRMKWKKPGAHQK [Wild type (wt) TIDM peptide (TLR2-interacting domain of MyD88 joined to Antennapedia homeodomain)], the ΔTm (shift of melting temperature) in assay [1] is 4.96 ° C. Also, the fold stronger affinity than mTIDM in assay [2] was determined as 2.5 fold. Besides, in assay [3], the Kd was determined as 8 µM.

As for DRQIKIWFQNRRMKWKKPGWHQD [Mutated (m) TIDM peptide], in assay [4], the Kd came out at 19 µM. Also, the ΔTm (shift of melting temperature) in assay [5] came to 0.87 ° C.

For the origin of these results see patent US20210361740A1.
